These results are taken from patent publication US5143839A, “Assay of endopeptidases and novel purified bacterial enzyme” (Ramot Ltd., priority 1989, dated 1992).

As usually defined, the Km is the substrate concentration at which the rate is half of its maximum. What is called kcat is the number of substrate molecules converted per active site and unit of time at saturation.

Substrate in data set [1]: CC(C)C[C@H](NC(=O)[C@H](C)NC(=O)[C@H](C)NC(=O)CCC(=O)O)C(=O)Nc1ccc([N+](=O)[O-])cc1
Put plainly: Kinetic parameters of hydrolysis of Suc-Ala-Ala-Leu-NH-Np (Lineweaver-Burk). Format: biochemical, bovine. The note with it: other: (S) range 0.04-4.0 mM, 10 mM CaCl2, pH 7.5, 25° C., enzyme 2.2×10^-9 M. On the procedure: (§1) Neutral endopeptidase and neutral proteinase activities were assayed by the two-stage assay using the synthetic substrate Suc-Ala-Ala-Leu-NH-Np supplemented with Streptomyces griseus aminopeptidase, usually 6-7 μg/ml. Assays were performed in 0.1M NaCl-0.05M Tris.HCl, pH 7.5 at 25° C., unless otherwise stated, with or without 0.01M CaCl2. Assay volume was 1 ml or 2.5 ml when using a Varian Techtron spectrophotometer or 0.2 ml at 23° C. when performed with microplates (Munc Immuno Plate II F) using a Kinetic Microplate Reader (Molecular Devices Corp.). Activity was measured by following the increase in absorbance at 405 nm, due to the release of 4-nitroaniline, E405 =10,600M^-1 cm^-1 [14 ]. Molar concentration of thermolysin was estimated using A280 1% =17.65 [15] and molecular mass of 34,600 Da; molar concentration of bovine kidney neutral endopeptidase by protein determination and molecular mass of 90 kDa, deduced from SDS PAGE. Both endopeptidase 24.11 from bovine kidney and thermolysin cleave the Ala-Leu bond of the compound at a very fast rate (Table 3). […]
(§2) Reactions were carried out in the presence of 10 mM CaCl2 at pH 7.5, 25° C. […] Values of kcat and Km were determined by Lineweaver-Burk plots.

Substrate in data set [2]: CC(C)C[C@H](NC(=O)[C@H](C)NC(=O)[C@H](C)NC(=O)CCC(=O)O)C(=O)Nc1ccc([N+](=O)[O-])cc1
The data set is described as above. The data set is classed as biochemical. To be noted: other: (S) range 0.4-4.0 mM, 10 mM CaCl2, pH 7.5, 25° C., enzyme 3.0×10^-10 M. Here is the method: as §1, with “3). The Leu residue of the substrate interacts with the major hydrophobic specificity sites of the enzymes (S'1), whereas the two Ala residues interact with additional subsites (S1, S2), thereby contributing to catalysis and/or binding. Even the 4-nitroaniline leaving group probably interacts with the enzyme at subsite S'2. Previously reported assays of endopeptidase 24.11 usually utilized a hydrophobic Phe residue, but Leu seems preferable in reaching higher kcat values. The rapid hydrolysis of the Leu residue is also preferable for the present two-stage assay utilizing Steptomyces aminopeptidase, since this enzyme very rapidly hydrolyzes the product of the endopeptidase attack, Leu-NH-Np.” for “3).”
as §2

B1: bovine kidney neutral endopeptidase 24.11 (Bos taurus) (protein)
chain: MGRSESQMDITDINTPKPKKKQRWTPLEISLSVLVLLLTIIAVTMIALYATYDDGICKSSECIKSAARLIQNMDATVEPCTDFFKYACGGWLKRNVIPETSSRYSNFDILRDELEVVLKDVLQEPKTEDIIAVQKAKMLYRSCINETAIESRGGEPLLRLLPDIYDWPVALENWEQKYGSSWTAEKSIAQLNSKYGKKVIINFFVGTDDKNSTNHIIHIDQPQLGLPSRDYYECTAAYKEACTAYVDFMISVAKLIRQERGLPIDENQLSLEMNKVMDLEKEIANATTKSEDRNDPMLLYNKMTLAEVQNKFSLEFSGKPFSWSNFTNEIMSTVNINIPHEEEVIVYAPEYLTNLKLILAKYSARDLQNLMSWRFIMDLVSSLSRNYKESRNAFRKALYGTTSETATWRRCANYVNGNMENAVGRLYVEAAFPGDSKHVVEDLIAQIRAVFIQTLDDLTWMDAETKKKAEEKALAIKERIGYPDDIISNDDKLNKEYLELSYQEEEYFENIIQNLKFGQNRQLKKLREKVDKDEWISGAAVVNAFYSSGRNQIVFPAGILQPPFFSAQQPKSLNYGGIGMVIGHEITHGFDDNGRNFNKDGDLVDWWTQQSANNFKDLSQCMVYQYGNFSWDLANGQHLNGINTLGENIADNGGIGQAYRAYQNYVKKHGEEKLLPGLDLNHRQLFFLNFAQVWCGTYRTEYALNSIKTDVHSPGNFRIIGTLQNSPQFSEAFHCRKNSYMNPEKKCRVW
notes: Endopeptidase 24.11 from bovine kidney was purified by Triton X-100 extraction; from tissue; host or cells: bovine kidney
B1: in data set [1], the Km turned out to be 150 µM and the kcat was 120 s⁻¹.

B2: Thermolysin (Bacillus thermoproteolyticus) (protein)
chain: ITGTSTVGVGRGVLGDQKNINTTYSTYYYLQDNTRGNGIFTYDAKYRTTLPGSLWADADNQFFASYDAPAVDAHYYAGVTYDYYKNVHNRLSYDGNNAAIRSSVHYSQGYNNAFWNGSQMVYGDGDGQTFIPLSGGIDVVAHELTHAVTDYTAGLIYQNESGAINEAISDIFGTLVEFYANKNPDWEIGEDVYTPGISGDSLRSMSDPAKYGDPDHYSKRYTGTQDNGGVHINSGIINKAAYLISQGGTHYGVSVVGIGRDKLGKIFYRALTQYLTPTSNFSQLRAAAVQSATDLYGSTSQEVASVKQAFDAVGVK
B2: in data set [2], the Km stood at 4200 µM, the kcat is 1200 s⁻¹ and the kcat/Km amounted to 0.29 M^-1 s^-1 × 10^-6.
